# Measurements from patent US6416738B1, “Pretargeting methods and compounds” (NeoRx Corporation, priority 1973, dated 2002).
# T1: NR-LU-10 antigen (Homo sapiens, UniProt P16422)
# T1 construct: Positive NR-LU-10 tissue reactivity indicates NR-LU-10 antigen expression by such tissues; from tissue; host or cells: carcinoma and normal tissue specimens
# T1 sequence (P16422 24-314): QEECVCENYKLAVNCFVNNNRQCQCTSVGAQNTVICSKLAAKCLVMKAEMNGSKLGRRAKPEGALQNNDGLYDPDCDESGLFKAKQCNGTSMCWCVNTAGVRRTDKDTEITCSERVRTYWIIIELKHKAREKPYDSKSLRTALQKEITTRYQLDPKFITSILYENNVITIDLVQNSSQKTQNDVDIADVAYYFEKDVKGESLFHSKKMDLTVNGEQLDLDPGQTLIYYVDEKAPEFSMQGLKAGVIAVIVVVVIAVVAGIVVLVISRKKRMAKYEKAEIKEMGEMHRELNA
# B1: NR-LU-10: 150 kilodalton IgG2b monoclonal antibody recognizing an approximately 40 kilodalton glycoprotein antigen expressed on most carcinomas (antibody, V domains shown)
# VH: EVQLQQSGAELVKPGASVRLSCTASGFNIKDTYMHWVIERPEQGLEWIGRIDPANGNTKCDPKFQGKATITADTSSNTAYLQLSSLTSEDTAVYYCSREVLTGTWSLDYWGQGTSVTVSS
# VL: DIQMIQSPSSMFASLGDRVSLSCRASQGIRGNLDWYQQKPGGTIKLLIYSTSNLNSGVPSRFSGSGSGSDYSLTISSLDSEDFADYYCLQRNAYPYTFGGGTKLEIK
# Target: T1, NR-LU-10 antigen
# Experiment: NR-LU-10 reactivity with normal tissues (Table B)
# Format: binding
# Source text: Radioimmunoassays, immunoprecipitation and Fluorescence-Activated Cell Sorter (FACS) analysis were used to obtain reactivity profiles of NR-LU-10. The NR-LU-10 target antigen was present on either fixed cultured cells or in detergent extracts of various types of cancer cells. For example, the NR-LU-10 antigen is found in small cell lung, non-small cell lung, colon, breast, renal, ovarian, pancreatic, and other carcinoma tissues. Tumor reactivity of the NR-LU-10 antibody is set forth in Table A, while NR-LU-10 reactivity with normal tissues is set forth in Table B. The values in Table B are obtained as described below. Positive NR-LU-10 tissue reactivity indicates NR-LU-10 antigen expression by such tissues.
# The tissue specimens were scored in accordance with three reactivity parameters: (1) the intensity of the reaction; (2) the uniformity of the reaction within the cell type; and (3) the percentage of cells reactive with the antibody. These three values are combined into a single weighted comparative value between 0 and 500, with 500 being the most intense reactivity. This comparative value facilitates comparison of different tissues. Table B includes a summary reactivity value, the number of tissue samples examined and the number of samples that reacted positively with NR-LU-10.
# [1] = Adenoid: Lymphoid Follicle-Central
# [2] = Adenoid: Lymphoid Follicle-Peripheral
# [3] = Adrenal: Zona Fasciculata Cortex
# [4] = Adrenal: Zona Glomerulosa Cortex
# [5] = Adrenal: Zona Reticularis Cortex
# [6] = Brain-Cerebellum: Axons, Myelinated
# [7] = Brain-Cerebellum: Purkenje's Cells
# [8] = Brain-Cerebrum: Axons, Myelinated
# [9] = Brain-Midbrain: Axons, Myelinated
# [10] = Gall Bladder: Mucosal Epithelium
# [11] = Kidney: Distal Convoluted Tubules
# [12] = Kidney: Proximal Convoluted Tubules
# [13] = Liver: Central Lobular Hepatocyte
# [14] = Lymph Node: Lymphoid Follicle-Central
# [15] = Lymph Node: Lymphoid Follicle-Peripheral
# [16] = Mammary Gland: Alveolar Epithelium
molecule,measurement,setting,value
B1,# Pos/Exam,Adenoid,3/3
same,Summary Reactivity,Adenoid,433
same,# Pos/Exam,Adenoid: Epithelium,0/3
same,Summary Reactivity,Adenoid: Epithelium,0
same,# Pos/Exam,[1],0/3
same,Summary Reactivity,[1],0
same,# Pos/Exam,[2],2/2
same,Summary Reactivity,[2],400
same,# Pos/Exam,Adipose Tissue: Fat Cells,0/3
same,Summary Reactivity,Adipose Tissue: Fat Cells,0
same,# Pos/Exam,Adrenal: Medulla,0/3
same,Summary Reactivity,Adrenal: Medulla,0
same,# Pos/Exam,[3],0/3
same,Summary Reactivity,[3],0
same,# Pos/Exam,[4],0/3
same,Summary Reactivity,[4],0
same,# Pos/Exam,[5],0/3
same,Summary Reactivity,[5],0
same,# Pos/Exam,Aorta: Elastic Interna,0/3
same,Summary Reactivity,Aorta: Elastic Interna,0
same,# Pos/Exam,Aorta: Endothelium,0/3
same,Summary Reactivity,Aorta: Endothelium,0
same,# Pos/Exam,Aorta: Tunica Adventitia,0/3
same,Summary Reactivity,Aorta: Tunica Adventitia,0
same,# Pos/Exam,Aorta: Tunica Media,0/3
same,Summary Reactivity,Aorta: Tunica Media,0
same,# Pos/Exam,[6],0/3
same,Summary Reactivity,[6],0
same,# Pos/Exam,Brain-Cerebellum: Microglia,0/3
same,Summary Reactivity,Brain-Cerebellum: Microglia,0
same,# Pos/Exam,Brain-Cerebellum: Neurons,0/3
same,Summary Reactivity,Brain-Cerebellum: Neurons,0
same,# Pos/Exam,[7],0/3
same,Summary Reactivity,[7],0
same,# Pos/Exam,[8],0/3
same,Summary Reactivity,[8],0
same,# Pos/Exam,Brain-Cerebrum: Microglia,0/3
same,Summary Reactivity,Brain-Cerebrum: Microglia,0
same,# Pos/Exam,Brain-Cerebrum: Neurons,0/3
same,Summary Reactivity,Brain-Cerebrum: Neurons,0
same,# Pos/Exam,[9],0/3
same,Summary Reactivity,[9],0
same,# Pos/Exam,Brain-Midbrain: Microglia,0/3
same,Summary Reactivity,Brain-Midbrain: Microglia,0
same,# Pos/Exam,Brain-Midbrain: Neurons,0/3
same,Summary Reactivity,Brain-Midbrain: Neurons,0
same,# Pos/Exam,Colon: Mucosal Epithelium,3/3
same,Summary Reactivity,Colon: Mucosal Epithelium,500
same,# Pos/Exam,Colon: Muscularis Externa,0/3
same,Summary Reactivity,Colon: Muscularis Externa,0
same,# Pos/Exam,Colon: Muscularis Mucosa,0/3
same,Summary Reactivity,Colon: Muscularis Mucosa,0
same,# Pos/Exam,Colon: Nerve Ganglia,0/3
same,Summary Reactivity,Colon: Nerve Ganglia,0
same,# Pos/Exam,Colon: Serosa,0/1
same,Summary Reactivity,Colon: Serosa,0
same,# Pos/Exam,Duodenum: Mucosal Epithelium,3/3
same,Summary Reactivity,Duodenum: Mucosal Epithelium,500
same,# Pos/Exam,Duodenum: Muscularis Mucosa,0/3
same,Summary Reactivity,Duodenum: Muscularis Mucosa,0
same,# Pos/Exam,Epididymis: Epithelium,3/3
same,Summary Reactivity,Epididymis: Epithelium,419
same,# Pos/Exam,Epididymis: Smooth Muscle,0/3
same,Summary Reactivity,Epididymis: Smooth Muscle,0
same,# Pos/Exam,Epididymis: Spermatozoa,0/1
same,Summary Reactivity,Epididymis: Spermatozoa,0
same,# Pos/Exam,Esophagus: Epithelium,3/3
same,Summary Reactivity,Esophagus: Epithelium,86
same,# Pos/Exam,Esophagus: Mucosal Gland,2/2
same,Summary Reactivity,Esophagus: Mucosal Gland,450
same,# Pos/Exam,Esophagus: Smooth Muscle,0/3
same,Summary Reactivity,Esophagus: Smooth Muscle,0
same,# Pos/Exam,[10],0/3
same,Summary Reactivity,[10],467
same,# Pos/Exam,Gall Bladder: Smooth Muscle,0/3
same,Summary Reactivity,Gall Bladder: Smooth Muscle,0
same,# Pos/Exam,Heart: Myocardium,0/3
same,Summary Reactivity,Heart: Myocardium,0
same,# Pos/Exam,Heart: Serosa,0/1
same,Summary Reactivity,Heart: Serosa,0
same,# Pos/Exam,Ileum: Lymph Node,0/2
same,Summary Reactivity,Ileum: Lymph Node,0
same,# Pos/Exam,Ileum: Mucosal Epithelium,0/2
same,Summary Reactivity,Ileum: Mucosal Epithelium,0
same,# Pos/Exam,Ileum: Muscularis Externa,0/1
same,Summary Reactivity,Ileum: Muscularis Externa,0
same,# Pos/Exam,Ileum: Muscularis Mucosa,0/2
same,Summary Reactivity,Ileum: Muscularis Mucosa,0
same,# Pos/Exam,Ileum: Nerve Ganglia,0/1
same,Summary Reactivity,Ileum: Nerve Ganglia,0
same,# Pos/Exam,Ileum: Serosa,0/1
same,Summary Reactivity,Ileum: Serosa,0
same,# Pos/Exam,Jejunum: Lymph Node,0/1
same,Summary Reactivity,Jejunum: Lymph Node,0
same,# Pos/Exam,Jejunum: Mucosal Epithelium,2/2
same,Summary Reactivity,Jejunum: Mucosal Epithelium,400
same,# Pos/Exam,Jejunum: Muscularis Externa,0/2
same,Summary Reactivity,Jejunum: Muscularis Externa,0
same,# Pos/Exam,Jejunum: Muscularis Mucosa,0/2
same,Summary Reactivity,Jejunum: Muscularis Mucosa,0
same,# Pos/Exam,Jejunum: Nerve Ganglia,0/2
same,Summary Reactivity,Jejunum: Nerve Ganglia,0
same,# Pos/Exam,Jejunum: Serosa,0/1
same,Summary Reactivity,Jejunum: Serosa,0
same,# Pos/Exam,Kidney: Collecting Tubules,2/3
same,Summary Reactivity,Kidney: Collecting Tubules,160
same,# Pos/Exam,[11],3/3
same,Summary Reactivity,[11],500
same,# Pos/Exam,Kidney: Glomerular Eipithelium,0/3
same,Summary Reactivity,Kidney: Glomerular Eipithelium,0
same,# Pos/Exam,Kidney: Mesangial,0/3
same,Summary Reactivity,Kidney: Mesangial,0
same,# Pos/Exam,[12],3/3
same,Summary Reactivity,[12],500
same,# Pos/Exam,Liver: Bile Duct,3/3
same,Summary Reactivity,Liver: Bile Duct,500
same,# Pos/Exam,[13],1/3
same,Summary Reactivity,[13],4
same,# Pos/Exam,Liver: Kupffer Cells,0/3
same,Summary Reactivity,Liver: Kupffer Cells,0
same,# Pos/Exam,Liver: Periportal Hepatocyte,1/3
same,Summary Reactivity,Liver: Periportal Hepatocyte,40
same,# Pos/Exam,Lung: Alveolar Macrophage,0/3
same,Summary Reactivity,Lung: Alveolar Macrophage,0
same,# Pos/Exam,Lung: Bronchial Epithelium,0/2
same,Summary Reactivity,Lung: Bronchial Epithelium,0
same,# Pos/Exam,Lung: Bronchial Smooth Muscle,0/2
same,Summary Reactivity,Lung: Bronchial Smooth Muscle,0
same,# Pos/Exam,Lung: Pneumocyte Type I,3/3
same,Summary Reactivity,Lung: Pneumocyte Type I,354
same,# Pos/Exam,Lung: Pneumocyte Type II,3/3
same,Summary Reactivity,Lung: Pneumocyte Type II,387
same,# Pos/Exam,[14],0/3
same,Summary Reactivity,[14],0
same,# Pos/Exam,[15],0/3
same,Summary Reactivity,[15],0
same,# Pos/Exam,[16],3/3
same,Summary Reactivity,[16],500
same,# Pos/Exam,Mammary Gland: Duct Epithelium,3/3
same,Summary Reactivity,Mammary Gland: Duct Epithelium,500
same,# Pos/Exam,Mammary Gland: Myoepithelium,0/3
same,Summary Reactivity,Mammary Gland: Myoepithelium,0
same,# Pos/Exam,Muscle Skeletal: Muscle Fiber,0/3
same,Summary Reactivity,Muscle Skeletal: Muscle Fiber,0
same,# Pos/Exam,"Nerve: Axon, Myelinated",0/2
same,Summary Reactivity,"Nerve: Axon, Myelinated",0
same,# Pos/Exam,Nerve: Endoneurium,0/2
